The values that follow are results of earlier work, collected in patent publication US20070184095A1, “OSMIUM COMPOUNDS FOR THE TREATMENT OF PSORIASIS” (priority 2006, published 2007).

Regarding “efalizumab: humanized monoclonal antibody against the CD11a subunit of LFA-1”, where the note is “human, in vivo”, the “patients who developed hemolytic anaemia” value was “four”, the “patients with immune-mediated thrombocytopenia (platelet counts at or below 52,000 cells/microliter)” value is given as 0.3% and the “subjects developing antiefalizumab antibodies” value is “approximately 5%”. For the same substance, the “overall incidence of hospitalization for infections” value (placebo 1.2) was 1.6 per 100 patient-years.
As for “infliximab: chimeric (mouse-human) IgG1 monoclonal antibody, which binds to and inactivates TNF-α”, the reported adverse events entry (small percentage of treated patients) is “pneumonia, tuberculosis, lymphoma, drug-induced lupus and hepatotoxicity”.
For Adalimumab, where the note is “human, in vivo”, the “increase in incidence of serious infections” value is recorded as “two-fold” and the most notable complication result was “reactivation of tuberculosis”.
